The test concerns the target GrpU protein from Clostridiales bacterium 1_7_47FAA (Clostridiales bacterium 1_7_47FAA). The test is described as follows: crystal structure.

As to “GrpU protein from Clostridiales bacterium 1_7_47FAA (natural protein)”, the stoichiometry N was 6.

In general, stoichiometry N refers to the number of molecules, sites or subunits per partner or assembly.
